# Test results published in article PMC10017804.
# Target: photosystem II (PSII) complex of Porphyridium purpureum (P. purpureum (endogenous in P. purpureum cells))
# Experiment: cryo-EM structure; in situ, single cryo-EM images (no tilt series) of FIB-milled P. purpureum cellular lamellae; particles localized by GisSPA, then 3D classification and local refinement
substance,measurement,value
photosystem II (PSII) complex of Porphyridium purpureum,stoichiometry N,4
